Measurements taken from patent US20210171647A1 (WUXI BIOLOGICS SHANGHAI, published 2021).
Numbering of substitutions follows the chain as printed.

How the values were obtained:
Test in all cases: ELISA, antibody coated, OX40-ECD.His mutant supernatant; relative to silent alanine substitutions;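 further: captured OX40 mutant protein detected with HRP-labelled anti-His antibody, absorbance read-out, scaled to the mean signal of control mutants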
human OX40-ECD.His R95A = biological target: T1, human OX40-ECD.His R95A (human, UniProt P43489 29-214)
T1 construct: extracellular domain; not shown: C-terminal His-tag
T1 sequence (looked up): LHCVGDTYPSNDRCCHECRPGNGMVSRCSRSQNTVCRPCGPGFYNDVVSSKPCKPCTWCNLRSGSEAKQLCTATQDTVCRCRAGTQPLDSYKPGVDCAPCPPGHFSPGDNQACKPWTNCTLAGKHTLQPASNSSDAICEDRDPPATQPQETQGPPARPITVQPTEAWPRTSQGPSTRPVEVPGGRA

human OX40-ECD.His S59A = biological target: T2, human OX40-ECD.His S59A (human, UniProt P43489 29-214)
T2 construct: extracellular domain; not shown: C-terminal His-tag
T2 sequence (looked up): T1 sequence (looked up) with S31A, A67R

human OX40-ECD.His P172A = biological target: T3, human OX40-ECD.His P172A (human, UniProt P43489 29-214)
T3 construct: extracellular domain; not shown: C-terminal His-tag
T3 sequence (looked up): T1 sequence (looked up) with A67R, P144A

human OX40-ECD.His D74A = biological target: T4, human OX40-ECD.His D74A (human, UniProt P43489 29-214)
T4 construct: extracellular domain; not shown: C-terminal His-tag
T4 sequence (looked up): T1 sequence (looked up) with D46A, A67R

human OX40-ECD.His V63A = biological target: T5, human OX40-ECD.His V63A (human, UniProt P43489 29-214)
T5 construct: extracellular domain; not shown: C-terminal His-tag
T5 sequence (looked up): T1 sequence (looked up) with V35A, A67R

human OX40-ECD.His D34A = biological target: T6, human OX40-ECD.His D34A (human, UniProt P43489 29-214)
T6 construct: extracellular domain; not shown: C-terminal His-tag
T6 sequence (looked up): T1 sequence (looked up) with D6A, A67R

human OX40-ECD.His V53A = biological target: T7, human OX40-ECD.His V53A (human, UniProt P43489 29-214)
T7 construct: extracellular domain; not shown: C-terminal His-tag
T7 sequence (looked up): T1 sequence (looked up) with V25A, A67R

human OX40-ECD.His V76A = biological target: T8, human OX40-ECD.His V76A (human, UniProt P43489 29-214)
T8 construct: extracellular domain; not shown: C-terminal His-tag
T8 sequence (looked up): T1 sequence (looked up) with V48A, A67R

human OX40-ECD.His H132A = biological target: T9, human OX40-ECD.His H132A (human, UniProt P43489 29-214)
T9 construct: extracellular domain; not shown: C-terminal His-tag
T9 sequence (looked up): T1 sequence (looked up) with A67R, H104A

human OX40-ECD.His T113A = biological target: T10, human OX40-ECD.His T113A (human, UniProt P43489 29-214)
T10 construct: extracellular domain; not shown: C-terminal His-tag
T10 sequence (looked up): T1 sequence (looked up) with A67R, T85A

B1: 1.134.9-u1-IgG1L (antibody, V domains shown)
VH: QVQLQESGPGLVKPSGTLSLTCAVSGGSISSYNWWSWVRQPPGKGLEWIGEIYHGGNTNYNPSLKSRVTMSVDNSKNQFSLKLSSVTAADTAVYYCARAPGDWGGSPYFDFWGQGTLVTVSS
VL: SSELTQDPAVSVALGQTVRITCQGDNLRTYYASWYQQKPGQAPILLIYGRNKRPSGIPDRFSGSSSGNTASLTITGAQAEDEAAYYCNSRDSSGNPVVFGGGTKLTVL
notes: fully human IgG1, lambda
- Fold Change (human OX40-ECD.His R95A): 0.996
- Fold Change (human OX40-ECD.His S59A): 1
- Fold Change (human OX40-ECD.His P172A): 1.02
- Fold Change (human OX40-ECD.His D74A): 0.796
- Fold Change (human OX40-ECD.His V63A): 0.886
- Fold Change (human OX40-ECD.His D34A): 0.991
- Fold Change (human OX40-ECD.His V53A): 0.896
- Fold Change (human OX40-ECD.His V76A): 1.02
- Fold Change (human OX40-ECD.His H132A): 0.826
- Fold Change (human OX40-ECD.His T113A): 0.784
